Experimental data as given in the supplement of paper PMC10899765.

Columns and labels:
Conditions in all cases: 20 nM; 72 h
MCF10A [1] = test: percent viability (nuclei count relative to siNT); higher = more viable cells
Protocol: (§1)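 After 72 h, cells were fixed and stained with Hoechst and anti-fibrillarin, and nucleoli per nucleus were counted with CellProfiler. Values are plate-adjusted percent effect for the one-nucleolus and 5+ nucleoli phenotypes, normalised to siNT (0%) and to the positive controls siNOL11 or siKIF11 (100%), as the mean of biological triplicates. Percent viability is the nuclei count relative to siNT.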

MCF10A [2] = test: 5+ nucleoli phenotype percent effect (relative to siNT 0% and siKIF11 100%); higher = more cells with five or more nucleoli
Protocol: as §1

MCF10A [3] = test: one-nucleolus phenotype percent effect (relative to siNT 0% and siNOL11 100%); higher = more cells with one nucleolus (ribosome biogenesis inhibition)
Protocol: as §1

UGCAUCAGGCCAGAAGACAUGAG [hsa-miR-4711-5p]
percent viability (MCF10A [1]): 23.9%
5+ nucleoli phenotype percent effect (MCF10A [2]): -36.8%
one-nucleolus phenotype percent effect (MCF10A [3]): 12.6%

CAAAGCGCUUCCCUUUGGAGC [hsa-miR-518d-3p]
percent viability (MCF10A [1]): 29.8%
5+ nucleoli phenotype percent effect (MCF10A [2]): -31.6%
one-nucleolus phenotype percent effect (MCF10A [3]): 42.6%

GGGGCUGGGGCCGGGGCCGAGC [hsa-miR-762]
percent viability (MCF10A [1]): 59.8%
5+ nucleoli phenotype percent effect (MCF10A [2]): 53.9%
one-nucleolus phenotype percent effect (MCF10A [3]): -31.4%

UACAGCCCUGUGAUCUUUCCAG [hsa-miR-6856-3p]
percent viability (MCF10A [1]): 74.9%
5+ nucleoli phenotype percent effect (MCF10A [2]): 21%
one-nucleolus phenotype percent effect (MCF10A [3]): -21%

UCUGGGGUCUUGGGCCAUC [hsa-miR-7155-5p]
percent viability (MCF10A [1]): 10.2%
5+ nucleoli phenotype percent effect (MCF10A [2]): -0.455%
one-nucleolus phenotype percent effect (MCF10A [3]): 34.2%

AAUCGGACCCAUUUAAACCGGAG [hsa-miR-5188]
percent viability (MCF10A [1]): 90.7%
5+ nucleoli phenotype percent effect (MCF10A [2]): 10.2%
one-nucleolus phenotype percent effect (MCF10A [3]): -9.59%

AGCGAGGUUGCCCUUUGUAUAU [hsa-miR-381-5p]
percent viability (MCF10A [1]): 52.5%
5+ nucleoli phenotype percent effect (MCF10A [2]): 0.715%
one-nucleolus phenotype percent effect (MCF10A [3]): -12.7%

CCUCGGUACUGGAAAGGGGUA [hsa-miR-8088]
percent viability (MCF10A [1]): 108%
5+ nucleoli phenotype percent effect (MCF10A [2]): 15.8%
one-nucleolus phenotype percent effect (MCF10A [3]): -9.43%

UGCCUAGGCUGAGACUGCAGUG [hsa-miR-3135a]
percent viability (MCF10A [1]): 25.7%
5+ nucleoli phenotype percent effect (MCF10A [2]): 1.84%
one-nucleolus phenotype percent effect (MCF10A [3]): 2.6%

ACAGAUUCGAUUCUAGGGGAAU [hsa-miR-10b-3p]
percent viability (MCF10A [1]): 53.5%
5+ nucleoli phenotype percent effect (MCF10A [2]): -9.13%
one-nucleolus phenotype percent effect (MCF10A [3]): 15.6%

UUCAAGUAAUUCAGGAUAGGU [hsa-miR-26b-5p]
percent viability (MCF10A [1]): 149%
5+ nucleoli phenotype percent effect (MCF10A [2]): 45.6%
one-nucleolus phenotype percent effect (MCF10A [3]): -8.67%

GCGGUGGGGCCGGAGGGGCGU [hsa-miR-6786-5p]
percent viability (MCF10A [1]): 96.7%
5+ nucleoli phenotype percent effect (MCF10A [2]): 31.9%
one-nucleolus phenotype percent effect (MCF10A [3]): -24.9%

CUGCCAGCCCCGUUCCAGGGCA [hsa-miR-3972]
percent viability (MCF10A [1]): 42.9%
5+ nucleoli phenotype percent effect (MCF10A [2]): -1.63%
one-nucleolus phenotype percent effect (MCF10A [3]): -2.85%

UUGGACAGAAAACACGCAGGAA [hsa-miR-4520a-3p]
percent viability (MCF10A [1]): 59.1%
5+ nucleoli phenotype percent effect (MCF10A [2]): -25%
one-nucleolus phenotype percent effect (MCF10A [3]): -3.29%

AGGUGUUAUCCUAUCCAUUUGC [hsa-miR-4694-5p]
percent viability (MCF10A [1]): 25.3%
5+ nucleoli phenotype percent effect (MCF10A [2]): -15.4%
one-nucleolus phenotype percent effect (MCF10A [3]): 24.2%

GCCCAAAGGUGAAUUUUUUGGG [hsa-miR-186-3p]
percent viability (MCF10A [1]): 176%
5+ nucleoli phenotype percent effect (MCF10A [2]): 26.4%
one-nucleolus phenotype percent effect (MCF10A [3]): -20.2%

UAAGGUGCAUCUAGUGCAGAUAG [hsa-miR-18a-5p]
percent viability (MCF10A [1]): 49.1%
5+ nucleoli phenotype percent effect (MCF10A [2]): -34.5%
one-nucleolus phenotype percent effect (MCF10A [3]): 37.7%

UCACAACAACCUUGCAGGGUAGA [hsa-miR-5003-5p]
percent viability (MCF10A [1]): 80.1%
5+ nucleoli phenotype percent effect (MCF10A [2]): 16.9%
one-nucleolus phenotype percent effect (MCF10A [3]): -10.6%

UAAUCCUUGCUACCUGGGUGAGA [hsa-miR-500a-5p]
percent viability (MCF10A [1]): 55%
5+ nucleoli phenotype percent effect (MCF10A [2]): -16.1%
one-nucleolus phenotype percent effect (MCF10A [3]): 19.3%

GUGGUCUCUUGGCCCCCAG [hsa-miR-6848-3p]
percent viability (MCF10A [1]): 77.3%
5+ nucleoli phenotype percent effect (MCF10A [2]): 34.8%
one-nucleolus phenotype percent effect (MCF10A [3]): -17.9%

CAAAGCGCUUCUCUUUAGAGUGU [hsa-miR-518c-3p]
percent viability (MCF10A [1]): 44.9%
5+ nucleoli phenotype percent effect (MCF10A [2]): -26.1%
one-nucleolus phenotype percent effect (MCF10A [3]): 37.7%

AAAAGUUAUUGCGGUUUUGGCU [hsa-miR-548at-5p]
percent viability (MCF10A [1]): 54.1%
5+ nucleoli phenotype percent effect (MCF10A [2]): 15%
one-nucleolus phenotype percent effect (MCF10A [3]): -14.7%

CCCCGGGAACGUCGAGACUGGAGC [hsa-miR-1247-3p]
percent viability (MCF10A [1]): 17.1%
5+ nucleoli phenotype percent effect (MCF10A [2]): -15.3%
one-nucleolus phenotype percent effect (MCF10A [3]): 41.2%

AUUCUAAUUUCUCCACGUCUUU [hsa-miR-576-5p]
percent viability (MCF10A [1]): 100%
5+ nucleoli phenotype percent effect (MCF10A [2]): 28.2%
one-nucleolus phenotype percent effect (MCF10A [3]): 1.07%
